These results are taken from US20090130131A1.

Like-named read-outs stand apart in the source and are kept apart here.

Assay [1] addresses Influenza split vaccine A/New Caledonia/20/99 (H1N1).
Assay [2] has the same target. This is another data set of the same source.
The target in assay [3] is Influenza split vaccine A/New York/55/2004 (H3N2).
For assay [4], the target named is Influenza split vaccine B/Shanghai/361/2002.
Assay [5] deals with Influenza split vaccine A/New Caledonia/20/99 (H1N1). This is another data set of the same source.

Regarding “Synthetic AD vehicle SSF-30 (from UniProt P07988 220-260)”, the Coupling Ratio (%) in assay [1] is 91.3%.

“Synthetic AD vehicle SSF-28 (from UniProt P07988 201-260)”: the Coupling Ratio (%) in assay [2] worked out at 83%; in assay [3], 64.4%; in assay [4], 87.9%.

As for KLLLLKLLLLKLLLLKLLLL [Synthetic AD vehicle SSF-45], the Coupling Ratio (%) in assay [5] was 64.8%.

As for FPIPLPYCWLCRALIKRIQAMIPKG [Synthetic AD vehicle SSF-14], in assay [1], the Coupling Ratio (%) was determined as 57%.

For IPCCPVHLKRLKLLLLLLLLILLLILGALLMGL [Synthetic AD vehicle SSF-46], the Coupling Ratio (%) in assay [5] stood at 76.2%.

In the case of PVHLKRLLLLLLLLLLLLLLLL [Synthetic AD vehicle SSF-44], in assay [5], the Coupling Ratio (%) was 72.8%.

In the case of GIPFFPVHLKRLKLLLLLLLLILLLILGALLIGL [Synthetic AD vehicle SSF-47], the Coupling Ratio (%) in assay [5] came to 86.9%.

As to FGIPSSPVHLKRLLILKLLLLKILLLKLGALLIGL [Synthetic AD vehicle SSF-48], the Coupling Ratio (%) in assay [5] was 66.3%.

As to RMLPQLVCRLVLRCSMD [Synthetic AD vehicle SSF-24], the Coupling Ratio (%) in assay [1] stood at 91.3%.
